In article PMC4576506:

Biological target: recombinant human glycine receptor α1 subunit (hGlyRα1) homopentamer, detergent solubilized (human) (UniProt P23415)
Experiment: SEC

Substance: recombinant human glycine receptor α1 subunit (hGlyRα1) homopentamer, detergent solubilized (from UniProt P23415-2 29-449)
- stoichiometry N: 5
